We go through 94 variants from the supplement of paper PMC10567573.

B1: LOXL2 (parent)
chain: RLLRFSSQIHNNGQSDFRPKNGRH
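Further: lentivirally expressed fusions sorted by FACS into six bins by GFP to DsRed ratio, PSI derived from sequencing read proportions per bin multiplied by bin number.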

In the series the parent is B1. The experiment in a line: protein stability index of a GFP-peptide fusion (GPS, HEK-293T) (PSI 1-6); higher = more stable. To be noted: c terminus: a fixed tail appended.
Consider RLLRNSSQIHNNGQSDFRPKNGRH [F5N], for which the protein stability index worked out at 3.92.
RLLRHSSQIHNNGQSDFRPKNGRH [F5H]: the protein stability index turned out to be 3.95.
On to RLLRKSSQIHNNGQSDFRPKNGRH [F5K], for which the protein stability index is 3.29.
For RLLRWSSQIHNNGQSDFRPKNGRH [F5W], the protein stability index came out at 2.15.
The result for RLLRYSSQIHNNGQSDFRPKNGRH [F5Y] reads 2.96; that for RLLRASSQIHNNGQSDFRPKNGRH [F5A], 3.46; that for RLLRFSSQIPNNGQSDFRPKNGRH [H10P], 3.12.
Under RLLRFSSQITNNGQSDFRPKNGRH [H10T] stands 2.89; under RLLRFSSQIDNNGQSDFRPKNGRH [H10D], 3.68; under RLLRFSSQIANNGQSDFRPKNGRH [H10A], 3.28.
Under RLLRFSSQIGNNGQSDFRPKNGRH [H10G] stands 2.57.
RLLRFSSQIVNNGQSDFRPKNGRH [H10V]: the protein stability index amounted to 2.68.
RLLRFSSQIYNNGQSDFRPKNGRH [H10Y]: the protein stability index came out at 1.87.
The result for RLLRFSSQINNNGQSDFRPKNGRH [H10N] reads 3.06.
Under RLLRFSSQILNNGQSDFRPKNGRH [H10L] stands 2.14; under RLLRFSSQIQNNGQSDFRPKNGRH [H10Q], 2.83.
For the variant RLLRFSSQIINNGQSDFRPKNGRH [H10I], the protein stability index is 2.24.
Take RLLRFSSQIMNNGQSDFRPKNGRH [H10M]: the protein stability index was determined as 2.47.
For the variant RLLRFSSQISNNGQSDFRPKNGRH [H10S], the protein stability index is 2.71.
On to RLLRFSSQIENNGQSDFRPKNGRH [H10E], for which the protein stability index came out at 3.43.
RLLRFSSQIRNNGQSDFRPKNGRH [H10R]: the protein stability index is 2.36.
On to RLLRFSSQICNNGQSDFRPKNGRH [H10C], for which the protein stability index stood at 2.46.
In the case of RLLRFSSQIFNNGQSDFRPKNGRH [H10F], the protein stability index stood at 2.13.
Under RLLRFSSQIKNNGQSDFRPKNGRH [H10K] stands 2.8; under RLLRFSSQIWNNGQSDFRPKNGRH [H10W], 2.13; under RLIRFSSQIHNNGQSDFRPKNGRH [L3I], 3.14.
The result for RLMRFSSQIHNNGQSDFRPKNGRH [L3M] reads 3.37; that for RLVRFSSQIHNNGQSDFRPKNGRH [L3V], 3.44.
Turning to RLNRFSSQIHNNGQSDFRPKNGRH [L3N], the protein stability index is 3.98.
The result for RLYRFSSQIHNNGQSDFRPKNGRH [L3Y] reads 3.44; that for RLQRFSSQIHNNGQSDFRPKNGRH [L3Q], 3.99.
Take RLKRFSSQIHNNGQSDFRPKNGRH [L3K]: the protein stability index was 3.84.
Consider RLPRFSSQIHNNGQSDFRPKNGRH [L3P], for which the protein stability index amounted to 3.91.
Under RLTRFSSQIHNNGQSDFRPKNGRH [L3T] stands 3.95; under RLRRFSSQIHNNGQSDFRPKNGRH [L3R], 3.81.
The result for RLSRFSSQIHNNGQSDFRPKNGRH [L3S] reads 3.77; that for RLWRFSSQIHNNGQSDFRPKNGRH [L3W], 2.64.
As for RLLRFSAQIHNNGQSDFRPKNGRH [S7A], the protein stability index worked out at 2.5.
Under RLLRFSWQIHNNGQSDFRPKNGRH [S7W] stands 2.06; under RLLRFSVQIHNNGQSDFRPKNGRH [S7V], 2.04.
As to RLLRFSRQIHNNGQSDFRPKNGRH [S7R], the protein stability index worked out at 2.25.
With RLLRFSLQIHNNGQSDFRPKNGRH [S7L], the protein stability index turned out to be 1.78.
For the variant RLLRFSEQIHNNGQSDFRPKNGRH [S7E], the protein stability index was 2.79.
As to RLLRFSFQIHNNGQSDFRPKNGRH [S7F], the protein stability index stood at 1.79.
RLLRFSPQIHNNGQSDFRPKNGRH [S7P]: the protein stability index is 4.2.
Under RLLRFSTQIHNNGQSDFRPKNGRH [S7T] stands 2.21; under RLLRFSQQIHNNGQSDFRPKNGRH [S7Q], 2.18; under RLLRFSGQIHNNGQSDFRPKNGRH [S7G], 2.46.
Under RLLRFSIQIHNNGQSDFRPKNGRH [S7I] stands 1.89.
The result for RLLRFSCQIHNNGQSDFRPKNGRH [S7C] reads 2.41; that for RLLRFSHQIHNNGQSDFRPKNGRH [S7H], 2.44; that for RLLRFSKQIHNNGQSDFRPKNGRH [S7K], 2.21.
As to RLLRFSNQIHNNGQSDFRPKNGRH [S7N], the protein stability index turned out to be 2.79.
For the variant RLLRFSYQIHNNGQSDFRPKNGRH [S7Y], the protein stability index worked out at 2.25.
In the case of RLLRFSMQIHNNGQSDFRPKNGRH [S7M], the protein stability index stood at 1.79.
For RLLRFSDQIHNNGQSDFRPKNGRH [S7D], the protein stability index came out at 3.57.
The result for RLLRFSSQIHMNGQSDFRPKNGRH [N11M] reads 2.81; that for RLLRFSSQIHWNGQSDFRPKNGRH [N11W], 2.51; that for RLLRFSSQIHENGQSDFRPKNGRH [N11E], 2.86.
Under RLLRFSSQIHRNGQSDFRPKNGRH [N11R] stands 2.2.
On to RLLRFSSQIHQNGQSDFRPKNGRH [N11Q], for which the protein stability index came out at 2.46.
The result for RLLRFSSQIHGNGQSDFRPKNGRH [N11G] reads 2.23; that for RLLRFSSQIHKNGQSDFRPKNGRH [N11K], 2.29; that for RLLRFSSQIHYNGQSDFRPKNGRH [N11Y], 2.17.
The result for RLLRFSSQIHLNGQSDFRPKNGRH [N11L] reads 2.69; that for RLLRFSSQIHSNGQSDFRPKNGRH [N11S], 2.54.
As for RLLRFSSQIHPNGQSDFRPKNGRH [N11P], the protein stability index is 2.65.
Under RLLRFSSQIHANGQSDFRPKNGRH [N11A] stands 2.84.
Take RLLRFSSQIHDNGQSDFRPKNGRH [N11D]: the protein stability index is 3.29.
Under RLLRFSSQIHINGQSDFRPKNGRH [N11I] stands 2.39; under RLLRFSSQIHTNGQSDFRPKNGRH [N11T], 2.7; under RLLRFSSQIHCNGQSDFRPKNGRH [N11C], 2.17.
The result for RLLRFSSQIHFNGQSDFRPKNGRH [N11F] reads 2.23.
Regarding RLLRFSSQIHHNGQSDFRPKNGRH [N11H], the protein stability index turned out to be 2.8.
Under RLLRFSSQIHVNGQSDFRPKNGRH [N11V] stands 4.07.
The result for RLLRFYSQIHNNGQSDFRPKNGRH [S6Y] reads 2.89.
Take RLLRFESQIHNNGQSDFRPKNGRH [S6E]: the protein stability index was 3.62.
As to RLLRFLSQIHNNGQSDFRPKNGRH [S6L], the protein stability index was found to be 2.45.
RLLRFQSQIHNNGQSDFRPKNGRH [S6Q]: the protein stability index is 2.71.
As for RLLRFMSQIHNNGQSDFRPKNGRH [S6M], the protein stability index is 2.51.
The result for RLLRFDSQIHNNGQSDFRPKNGRH [S6D] reads 3.81; that for RLLRFHSQIHNNGQSDFRPKNGRH [S6H], 2.37.
Under RLLRFTSQIHNNGQSDFRPKNGRH [S6T] stands 2.46; under RLLRFISQIHNNGQSDFRPKNGRH [S6I], 3.34.
The result for RLLRFPSQIHNNGQSDFRPKNGRH [S6P] reads 3.41; that for RLLRFWSQIHNNGQSDFRPKNGRH [S6W], 2.56; that for RLLRFGSQIHNNGQSDFRPKNGRH [S6G], 2.64.
Take RLLRFASQIHNNGQSDFRPKNGRH [S6A]: the protein stability index was found to be 2.65.
The result for RLLRFVSQIHNNGQSDFRPKNGRH [S6V] reads 3.85.
RLLRFNSQIHNNGQSDFRPKNGRH [S6N]: the protein stability index was 3.03.
Under RLLRFFSQIHNNGQSDFRPKNGRH [S6F] stands 2.09; under RLLRFRSQIHNNGQSDFRPKNGRH [S6R], 2.99.
With RLLRFKSQIHNNGQSDFRPKNGRH [S6K], the protein stability index came to 3.05.
The result for RLLRFCSQIHNNGQSDFRPKNGRH [S6C] reads 3.08.
